According to patent US20170114338:

What does the source list for “Anthrax lethal factor (Product #169, List Biological Laboratories, Inc)”?
Peak area Average, 2 hour digest, LF 5 pg/ml plasma (LBL 10081): 9150 peak area; Peak area Average, 2 hour digest, LF 10 pg/ml plasma (LBL 10081): 10300 peak area; Peak area Average, 2 hour digest, LF 20 pg/ml plasma (LBL 10081): 15900 peak area; Peak area Average, 2 hour digest, LF 50 pg/ml plasma (LBL 10081): 33700 peak area; Peak area Average, 3.5 hour digest, LF 5 pg/ml plasma (LBL 10081): 12300 peak area; Peak area Average, 3.5 hour digest, LF 10 pg/ml plasma (LBL 10081): 15900 peak area; Peak area Average, 3.5 hour digest, LF 20 pg/ml plasma (LBL 10081): 24200 peak area; Peak area Average, 3.5 hour digest, LF 50 pg/ml plasma (LBL 10081): 49100 peak area; Peak area Average, 5 hour digest, LF 5 pg/ml plasma (LBL 10081): 15000 peak area; Peak area Average, 5 hour digest, LF 10 pg/ml plasma (LBL 10081): 22300 peak area; Peak area Average, 5 hour digest, LF 20 pg/ml plasma (LBL 10081): 32900 peak area; Peak area Average, 5 hour digest, LF 50 pg/ml plasma (LBL 10081): 66700 peak area; Peak area Average, overnight digest (RT), LF 5 pg/ml plasma (LBL 10081): 26900 peak area; Peak area Average, overnight digest (RT), LF 10 pg/ml plasma (LBL 10081): 36200 peak area; Peak area Average, overnight digest (RT), LF 20 pg/ml plasma (LBL 10081): 57900 peak area; Peak area Average, overnight digest (RT), LF 50 pg/ml plasma (LBL 10081): 130000 peak area; Peak area, 2 hour digest, LF 5 pg/ml plasma, rep 1 (LBL 10081): 9410 peak area; Peak area, 2 hour digest, LF 5 pg/ml plasma, rep 2 (LBL 10081): 8890 peak area; Peak area, 2 hour digest, LF 10 pg/ml plasma, rep 1 (LBL 10081): 10700 peak area; Peak area, 2 hour digest, LF 10 pg/ml plasma, rep 2 (LBL 10081): 9970 peak area; Peak area, 2 hour digest, LF 20 pg/ml plasma, rep 1 (LBL 10081): 16900 peak area; Peak area, 2 hour digest, LF 20 pg/ml plasma, rep 2 (LBL 10081): 14900 peak area; Peak area, 2 hour digest, LF 50 pg/ml plasma, rep 1 (LBL 10081): 33700 peak area; Peak area, 2 hour digest, LF 50 pg/ml plasma, rep 2 (LBL 10081): 33700 peak area; Peak area, 3.5 hour digest, LF 5 pg/ml plasma, rep 1 (LBL 10081): 11500 peak area; Peak area, 3.5 hour digest, LF 5 pg/ml plasma, rep 2 (LBL 10081): 13200 peak area; Peak area, 3.5 hour digest, LF 10 pg/ml plasma, rep 1 (LBL 10081): 16500 peak area; Peak area, 3.5 hour digest, LF 10 pg/ml plasma, rep 2 (LBL 10081): 15300 peak area; Peak area, 3.5 hour digest, LF 20 pg/ml plasma, rep 1 (LBL 10081): 24000 peak area; Peak area, 3.5 hour digest, LF 20 pg/ml plasma, rep 2 (LBL 10081): 24300 peak area; Peak area, 3.5 hour digest, LF 50 pg/ml plasma, rep 1 (LBL 10081): 49700 peak area; Peak area, 3.5 hour digest, LF 50 pg/ml plasma, rep 2 (LBL 10081): 48400 peak area; Peak area, 5 hour digest, LF 5 pg/ml plasma, rep 1 (LBL 10081): 14800 peak area; Peak area, 5 hour digest, LF 5 pg/ml plasma, rep 2 (LBL 10081): 15100 peak area; Peak area, 5 hour digest, LF 10 pg/ml plasma, rep 1 (LBL 10081): 22200 peak area; Peak area, 5 hour digest, LF 10 pg/ml plasma, rep 2 (LBL 10081): 22400 peak area; Peak area, 5 hour digest, LF 20 pg/ml plasma, rep 1 (LBL 10081): 31600 peak area; Peak area, 5 hour digest, LF 20 pg/ml plasma, rep 2 (LBL 10081): 34200 peak area; Peak area, 5 hour digest, LF 50 pg/ml plasma, rep 1 (LBL 10081): 67200 peak area; Peak area, 5 hour digest, LF 50 pg/ml plasma, rep 2 (LBL 10081): 66100 peak area; Peak area, overnight digest (RT), LF 5 pg/ml plasma, rep 1 (LBL 10081): 28500 peak area; Peak area, overnight digest (RT), LF 5 pg/ml plasma, rep 2 (LBL 10081): 25300 peak area; Peak area, overnight digest (RT), LF 10 pg/ml plasma, rep 1 (LBL 10081): 36500 peak area; Peak area, overnight digest (RT), LF 10 pg/ml plasma, rep 2 (LBL 10081): 36000 peak area; Peak area, overnight digest (RT), LF 20 pg/ml plasma, rep 1 (LBL 10081): 58200 peak area; Peak area, overnight digest (RT), LF 20 pg/ml plasma, rep 2 (LBL 10081): 57600 peak area; Peak area, overnight digest (RT), LF 50 pg/ml plasma, rep 1 (LBL 10081): 136000 peak area; Peak area, overnight digest (RT), LF 50 pg/ml plasma, rep 2 (LBL 10081): 124000 peak area; Slope (Peak Area/pg LF), 2 hr digest (Peak Area/pg LF) (LBL 10081): 553; Slope (Peak Area/pg LF), 3.5 hr digest (Peak Area/pg LF) (LBL 10081): 811; Slope (Peak Area/pg LF), 5 hr digest (Peak Area/pg LF) (LBL 10081): 1130; Slope (Peak Area/pg LF), Overnight digest (RT) (Peak Area/pg LF) (LBL 10081): 2280; Substrate RFUs after 5 hrs digest, LF 10 pg/ml in 1:10 diluted plasma (LBL 10081): 140 RFU; Substrate RFUs after 5 hrs digest, LF 20 pg/ml in 1:10 diluted plasma (LBL 10081): 137 RFU; Substrate RFUs after 5 hrs digest, LF 50 pg/ml in 1:10 diluted plasma (LBL 10081): 137 RFU; Substrate RFUs after 5 hrs digest, LF 100 pg/ml in 1:10 diluted plasma (LBL 10081): 141 RFU; Substrate RFUs after 5 hrs digest, LF 200 pg/ml in 1:10 diluted plasma (LBL 10081): 155 RFU; Substrate RFUs after 5 hrs digest, LF 500 pg/ml in 1:10 diluted plasma (LBL 10081): 190 RFU; Substrate RFUs after 5 hrs digest, LF 1000 pg/ml in 1:10 diluted plasma (LBL 10081): 256 RFU; Substrate RFUs after 24 hrs digest, LF 10 pg/ml in 1:10 diluted plasma (LBL 10081): 147 RFU; Substrate RFUs after 24 hrs digest, LF 20 pg/ml in 1:10 diluted plasma (LBL 10081): 149 RFU; Substrate RFUs after 24 hrs digest, LF 50 pg/ml in 1:10 diluted plasma (LBL 10081): 152 RFU; Substrate RFUs after 24 hrs digest, LF 100 pg/ml in 1:10 diluted plasma (LBL 10081): 161 RFU; Substrate RFUs after 24 hrs digest, LF 200 pg/ml in 1:10 diluted plasma (LBL 10081): 186 RFU; Substrate RFUs after 24 hrs digest, LF 500 pg/ml in 1:10 diluted plasma (LBL 10081): 248 RFU; Substrate RFUs after 24 hrs digest, LF 1000 pg/ml in 1:10 diluted plasma (LBL 10081): 354 RFU; Substrate RFUs, 1 hour, LF 10 pg/ml (LBL 10081): 89 RFU; Substrate RFUs, 1 hour, LF 20 pg/ml (LBL 10081): 87 RFU; Substrate RFUs, 1 hour, LF 50 pg/ml (LBL 10081): 88 RFU; Substrate RFUs, 1 hour, LF 100 pg/ml (LBL 10081): 88 RFU; Substrate RFUs, 1 hour, LF 200 pg/ml (LBL 10081): 92 RFU; Substrate RFUs, 1 hour, LF 500 pg/ml (LBL 10081): 97 RFU; Substrate RFUs, 1 hour, LF 1000 pg/ml (LBL 10081): 114 RFU; Substrate RFUs, 2 hours, LF 10 pg/ml (LBL 10081): 94 RFU; Substrate RFUs, 2 hours, LF 20 pg/ml (LBL 10081): 93 RFU; Substrate RFUs, 2 hours, LF 50 pg/ml (LBL 10081): 95 RFU; Substrate RFUs, 2 hours, LF 100 pg/ml (LBL 10081): 96 RFU; Substrate RFUs, 2 hours, LF 200 pg/ml (LBL 10081): 101 RFU; Substrate RFUs, 2 hours, LF 500 pg/ml (LBL 10081): 116 RFU; Substrate RFUs, 2 hours, LF 1000 pg/ml (LBL 10081): 148 RFU; Substrate RFUs, 3 hours, LF 10 pg/ml (LBL 10081): 98 RFU; Substrate RFUs, 3 hours, LF 20 pg/ml (LBL 10081): 99 RFU; Substrate RFUs, 3 hours, LF 50 pg/ml (LBL 10081): 100 RFU; Substrate RFUs, 3 hours, LF 100 pg/ml (LBL 10081): 103 RFU; Substrate RFUs, 3 hours, LF 200 pg/ml (LBL 10081): 111 RFU; Substrate RFUs, 3 hours, LF 500 pg/ml (LBL 10081): 131 RFU; Substrate RFUs, 3 hours, LF 1000 pg/ml (LBL 10081): 177 RFU; Substrate RFUs, 4 hours, LF 10 pg/ml (LBL 10081): 100 RFU; Substrate RFUs, 4 hours, LF 20 pg/ml (LBL 10081): 99 RFU; Substrate RFUs, 4 hours, LF 50 pg/ml (LBL 10081): 102 RFU; Substrate RFUs, 4 hours, LF 100 pg/ml (LBL 10081): 105 RFU; Substrate RFUs, 4 hours, LF 200 pg/ml (LBL 10081): 115 RFU; Substrate RFUs, 4 hours, LF 500 pg/ml (LBL 10081): 142 RFU; Substrate RFUs, 4 hours, LF 1000 pg/ml (LBL 10081): 202 RFU; Substrate RFUs, 5 hours, LF 10 pg/ml (LBL 10081): 103 RFU; Substrate RFUs, 5 hours, LF 20 pg/ml (LBL 10081): 102 RFU; Substrate RFUs, 5 hours, LF 50 pg/ml (LBL 10081): 106 RFU; Substrate RFUs, 5 hours, LF 100 pg/ml (LBL 10081): 111 RFU; Substrate RFUs, 5 hours, LF 200 pg/ml (LBL 10081): 125 RFU; Substrate RFUs, 5 hours, LF 500 pg/ml (LBL 10081): 157 RFU; Substrate RFUs, 5 hours, LF 1000 pg/ml (LBL 10081): 224 RFU; Substrate RFUs after 5 hrs digest, LF 10 pg/ml in 1:10 diluted plasma (LBL 10097): 224 RFU; Substrate RFUs after 5 hrs digest, LF 20 pg/ml in 1:10 diluted plasma (LBL 10097): 222 RFU; Substrate RFUs after 5 hrs digest, LF 50 pg/ml in 1:10 diluted plasma (LBL 10097): 249 RFU; Substrate RFUs after 5 hrs digest, LF 100 pg/ml in 1:10 diluted plasma (LBL 10097): 242 RFU; Substrate RFUs after 5 hrs digest, LF 200 pg/ml in 1:10 diluted plasma (LBL 10097): 256 RFU; Substrate RFUs after 5 hrs digest, LF 500 pg/ml in 1:10 diluted plasma (LBL 10097): 301 RFU; Substrate RFUs after 5 hrs digest, LF 1000 pg/ml in 1:10 diluted plasma (LBL 10097): 399 RFU; Substrate RFUs after 24 hrs digest, LF 10 pg/ml in 1:10 diluted plasma (LBL 10097): 227 RFU; Substrate RFUs after 24 hrs digest, LF 20 pg/ml in 1:10 diluted plasma (LBL 10097): 223 RFU; Substrate RFUs after 24 hrs digest, LF 50 pg/ml in 1:10 diluted plasma (LBL 10097): 245 RFU; Substrate RFUs after 24 hrs digest, LF 100 pg/ml in 1:10 diluted plasma (LBL 10097): 258 RFU; Substrate RFUs after 24 hrs digest, LF 200 pg/ml in 1:10 diluted plasma (LBL 10097): 286 RFU; Substrate RFUs after 24 hrs digest, LF 500 pg/ml in 1:10 diluted plasma (LBL 10097): 379 RFU; Substrate RFUs after 24 hrs digest, LF 1000 pg/ml in 1:10 diluted plasma (LBL 10097): 559 RFU
